Legend:
glioma GL261 tumors = assay: Mouse glioma GL261 tumor model, alone or with temozolomide; format: in vivo; details: 20 mg/kg TMZ + 200 μg antibody
Protocol: FIGS. 3A-3C: (FIG. 3A) Percent survival of glioma GL261 tumors treated with temozolomide (TMZ) in combination with IgG, F59, anti-PDL1, or F48. […] Western blot analysis of FLG2 expression with various antibodies. FGLS expression is reduced in tumors treated with anti-FGL2 antibodies. (FIG. 3C) Percent survival of mice inoculated with GL261 and treated with IgG control or F59.
Next, the effect of the combination of temozolomide (TMZ) and anti-PDL1+anti-FGL2 antibody was determined on the mouse glioma GL261 tumor model progression in vivo.
Percent survival of glioma GL261 tumors treated with temozolomide (TMZ) in combination with IgG, F59, anti-PDL1, or F48 (FIG. 3).

OT-I T cells = assay: Activation-induced OT-I T cell proliferation; format: cell-based; details: OT-I T cells activated with αCD3/CD28, with or without OVA peptide
Source text: OT-I T cells were activated with αCD3/CD28 and then divided into different dishes to check the proliferation in the absence or presence of +OVA peptide (pep), absence or presence FGL2 mAb F48, and co-absence or presence of F48. Cell numbers were counted on different days.

FGL2 = assay: Cross-species binding of anti-FGL2 antibodies
Source text: In particular embodiments, the anti-FGL2 monoclonal antibodies provided herein are the F48 and F59 antibodies. […] Given that the combination of CD39 and CD73 degrade ATP, ADP, and AMP to adenosine, they can be viewed as “immunological switches” that shift ATP-driven pro-inflammatory immune cell activity toward an anti-inflammatory state mediated by adenosine. CD39 and CD73 both play a role in regulating the function of several immune cell types, including lymphocytes, neutrophils, monocytes/macrophages, dendritic cells, and endothelial cells (Antonioli et al., 2013).

GL261 glioblastoma cells = assay: GL261 glioblastoma subcutaneous mouse model, M2 cell population in tumors; format: in vivo, mice; details: 100 μg antibody i.v. every 3 days, from 5-7 days after s.c. GL261 inoculation; vs IgG control
Source text: FIGS. 1A-1C: (FIG. 1A) FGL2 expression in normal brain and GBM tissue shown by immunohistochemistry. Increased staining is observed in the glioma tissues. (FIG. 1B) Flow cytometry analysis for the expression of F4/80 and CD206 in glioblastoma tumor cells treated with IgG control or F48 anti-FGL2 antibody. (FIG. 1C) Percentage of M2 macrophages in the glioblastoma tumors treated with IgG control or F48 anti-FGL2 antibody.
To screen for the anti-FGL2 antibody F48 function in mice, GL261 glioblastoma cells (1×10^5 in 30 μL) were injected into the back of mice by subcutaneous injection. The first treatment with antibody comprised 100 μg antibody by intravenous injection starting at about 5-7 days after tumor inoculation. The antibody treatment was repeated every 3 days and the mice were sacrificed at about 14-21 days.

[1] = system: CD39 and CD73 regulatory T cell expression; assay: Blocking of CD39 and CD73 regulatory T cell expression; format: cell-based
Protocol: The present studies developed and characterized two anti-FGL2 monoclonal antibodies, F48 and F59. […] The effects of the anti-FGL2 antibodies were evaluated alone and in combination with other anti-cancer therapies such as anti-PDL1 antibody and chemotherapy on several mouse tumor models, including glioblastoma, melanoma, and lung cancer.

B1: F48: anti-FGL2 monoclonal antibody of hybridoma clone F48; heavy chain SEQ ID NO:2, light chain SEQ ID NO:4 (antibody, V domains shown)
VH: MGWSCIILFLVATATGVHSQVQLQQPGAELVKPGASVKLSCKASGYTFASYWMQWVKQRPGQGLEWIGEIDPSDSYTNYNQKFKGKATLTVDTSSNTAYMQLSSLTSEDSAVYYCARNGNYYGSTYDYWGQGTTLTVSS
VL: MMSSAQFLGLLLLCFQGTRCDIQMTQTTSSLSASLGDRVTISCRASQDVSNYLNWYQQKPDGSVKLLIYYTSRLHSGVPSRFSGSGSGAHYSLTISNLEQEDIATYFCQQGNTLPPWTFGGGTKLEIK
percent survival (glioma GL261 tumors): significantly improve glioma survival
activation-induced T cell growth (cell numbers) (OT-I T cells): promote activation-induced T cell growth
cross-species binding (FGL2): share the property of cross-species binding
percentage of M2 cell population in the tumors (GL261 glioblastoma cells): suppression of the percentage of M2 cell population in the tumors
block CD39 and CD73 regulatory T cell expression [1]: able to block CD39 and CD73 regulatory T cell expression

Source: patent publication US11512141B2, “Fibrinogen-like protein 2 (FGL2) monoclonal antibodies and their use in cancer detection and treatment” (Board of Regents, The University of Texas System, priority 2017, dated 2022)
